As a reminder, the stoichiometry N is a count of units in the complex or per binding partner.

Data set [1] addresses murine DOCK2 DHR-2 domain, wild type (murine). Nature of the data set: SEC; Superdex 200 10/300 GL, 20 mM Tris-HCl pH 8.0, 250 mM NaCl, 5 mM 2-mercaptoethanol, 1 ml/minute, 20°C; size estimated against protein standards.
Data set [2] concerns the molecule itself. In words: crystal structure; human DOCK2 DHR-2 in complex with Rac1, PDB 3B13.

On to “murine DOCK2 DHR-2 domain, wild type (domain or fragment)”, for which, in data set [1], the stoichiometry N was 2.

B1: human DOCK2 DHR-2 domain (domain or fragment)
chain: SKDNRMSCTVNLLNFYKDNNREEMYIRYLYKLRDLHLDCDNYTEAAYTLLLHTWLLKWSDEQCASQVMQTGQQHPQTHRQLKETLYETIIGYFDKGKMWEEAISLCKELAEQYEMEIFDYELLSQNLIQQAKFYESIMKILRPKPDYFAVGYYGQGFPSFLRNKVFIYRGKEYERREDFQMQLMTQFPNAEKMNTTSAPGDDVKNAPGQYIQCFTVQPVLDEHPRFKNKPVPDQIINFYKSNYVQRFHYSRPVRRGTVDPENEFASMWIERTSFVTAYKLPGILRWFEVVHMSQTTISPLENAIETMSTANEKILMMINQYQSDETLPINPLSMLLNGIVDPAVMGGFAKYEKAFFTEEYVRDHPEDQDKLTHLKDLIAWQIPFLGAGIKIHEKRVSDNLRPFHDRMEECFKNLKMKVEKEYGVREM
notes: DOCK2, human, DHR-2 domain (lobes A, B and C) as crystallised with Rac1; Dimerises through lobe A in the crystal
B1: the “stoichiometry N” value in data set [2] was determined as 2.

These data come from PMC3458822, “Dimerization of DOCK2 Is Essential for DOCK2-Mediated Rac Activation and Lymphocyte Migration” (PLoS ONE, 2012).
